Test results taken from patent publication US11702475B2, “Cysteine engineered fibronectin type III domain binding molecules” (Janssen Biotech, Inc., priority 2013, dated 2023).

Tested on: NCI-H292 cells
Assay: NCI-H292 growth assay
Type: cell-based, human
Conditions: 120 hours, CellTiter-Glo
Method: Inhibition of EGFR-dependent cell growth was assessed by measuring viability of the EGFR over-expressing human tumor cell lines, NCI-H292 and NCI-H322 (American Type Culture Collection, cat. #CRL-1848 & #CRL-5806, respectively), following exposure to EGFR-binding FN3 domains. Cells were plated at 500 cells/well (NCI-H292) or 1,000 cells/well (NCI-H322) in opaque white 96-well tissue culture-treated plates (Nunc) in 1004/well of RPMI medium (Gibco) containing GlutaMAX™ and 10 mM HEPES, supplemented with 10% heat inactivated fetal bovine serum (Gibco) and 1% penicillin/streptomycin (Gibco), and allowed to attach overnight at 37° C. in a humidified 5% CO2 atmosphere. Cells were treated by addition of 54/well of phosphate-buffered saline (PBS) containing a concentration range of EGFR-binding FN3 domains. […] Viable cells were detected by addition of 754/well of CellTiter-Glo® reagent (Promega), followed by mixing on a plate shaker for 2 minutes, and incubation in the dark at room temperature for a further 10 minutes. Plates were read on a SpectraMax M5 plate reader (Molecular Devices) set to luminescence mode, with a read time of 0.5 seconds/well against a blank of medium only. […] IC50 values were determined by fitting data to the equation for a sigmoidal dose response with variable slope using GraphPad Prism 4 (GraphPad Software).

B1: P54AR4-47: EGFR-binding FN3 domain, SEQ ID NO: 20 (protein)
chain: LPAPKNLVVSEVTEDSLRLSWGYNGDHFDSFLIQYQESEKVGEAINLTVPGSERSYDLTGLKPGTEYTVSIYGVHNVYKDTNMRGLPLSAEFTT
modifications: EGFR binding FN3 domain
IC50: 44 nM
